Earlier results on 1 substance are cited in publication PMC4271846.

By Kd is commonly meant a measure of binding affinity in units of concentration.

In the series the target is tau (Homo sapiens) (UniProt P10636). The experiment in a line: SPR. (Surface plasmon resonance follows binding to a sensor surface in real time, without labels.)

For the substance tau (from UniProt P10636), the equilibrium dissociation constant (Kd) was 46 µM.
